Assay [1] concerns the target MERS-CoV S 2P trimer (S ectodomain, residues 19-1294) (MERS-CoV) (UniProt K9N5Q8). In words: SEC-MALS.
The target of assay [2] is SARS-CoV S 2P trimer (S ectodomain, residues 12-1193) (SARS-CoV) (UniProt P59594). The assay is described as follows: SEC-MALS.

Consider two substances from article PMC7311918.

Usually stoichiometry N stands for the number of molecules, sites or subunits per partner or assembly. In assay [1], “MERS-CoV S 2P trimer (S ectodomain, residues 19-1294) (from UniProt K9N5Q8 19-1294) (natural protein)” had a stoichiometry N of 3.

Consider “SARS-CoV S 2P trimer (S ectodomain, residues 12-1193) (from UniProt P59594 12-1193) (natural protein)”, for which the stoichiometry N in assay [2] stood at 3.
